Assay results from patent publication US20240091274A1.

Target: Human CD52 (human) (UniProt P31358)
Test: cell-based or functional assay

Human CD52 (human), sequence (P31358 25-61 limits assumed): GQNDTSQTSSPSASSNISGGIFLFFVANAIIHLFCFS

alemtuzumab (antibody)
CDC killing of human HIP iECs (CD52) with ABO-matched allogeneic serum (XCelligence): 0.001 µg/ml
CDC killing of mouse B6 HIP iECs (CD52) with syngeneic B6 serum (XCelligence): 0.0001 µg/mL
